Results from patent US20120021092A1.

Tests used:
Assay in all cases: cell-based or functional assay
[1] = biological target: Bacillus subtilis xylanase variant G13Y/T110A/Y113D/R122D/S162E/Q175L (modifications made to SEQ ID No. 1) (Bacillus subtilis) (UniProt P18429)
[2] = biological target: Bacillus subtilis xylanase variant G13Y/I77S/K99Y/T104W/T110A/Y113D/R122F/K154R/N159D/Q175L (modifications made to SEQ ID No. 1) (Bacillus subtilis) (UniProt P18429)
[3] = biological target: Bacillus subtilis xylanase variant G13Y/I77V/K99Y/T104W/T110A/Y113D/R122F/K154R/N159D/Q175L (modifications made to SEQ ID No. 1) (Bacillus subtilis) (UniProt P18429)
[4] = biological target: Bacillus subtilis xylanase variant G13Y/I15Y/Y113D/R122D/Q175L (modifications made to SEQ ID No. 1) (Bacillus subtilis) (UniProt P18429)
[5] = biological target: Bacillus subtilis xylanase variant G13Y/K99Y/T104W/T110A/Y113D/N114D/R122F/K154R/N159D/Q175L (modifications made to SEQ ID No. 1) (Bacillus subtilis) (UniProt P18429)
[6] = biological target: Bacillus subtilis xylanase variant G13Y/T110A/Y113D/R122D/W164F/Q175L (modifications made to SEQ ID No. 1) (Bacillus subtilis) (UniProt P18429)
[7] = biological target: Bacillus subtilis xylanase variant G13Y/K99Y/T104W/Y113D/R122D/Q175L (modifications made to SEQ ID No. 1) (Bacillus subtilis) (UniProt P18429)
[8] = biological target: Bacillus subtilis xylanase variant G13Y/G34K/T110A/Y113D/R122D/Q175L (modifications made to SEQ ID No. 1) (Bacillus subtilis) (UniProt P18429)
[9] = biological target: Bacillus subtilis xylanase variant G13F/Y113D/R122D/Q175L (modifications made to SEQ ID No. 1) (Bacillus subtilis) (UniProt P18429)
[10] = biological target: Bacillus subtilis xylanase variant D11F/R122D/T110A/Y113A (modifications made to SEQ ID No. 1) (Bacillus subtilis) (UniProt P18429)
[11] = biological target: Bacillus subtilis xylanase variant D11F/R122D/Q175Y/S179Y (modifications made to SEQ ID No. 1) (Bacillus subtilis) (UniProt P18429)
[12] = biological target: Bacillus subtilis xylanase variant G13Y/T110A/Y113D/R122F/Q175L (modifications made to SEQ ID No. 1) (Bacillus subtilis) (UniProt P18429)
[13] = biological target: Bacillus subtilis xylanase variant G13Y/K99Y/T104W/T110A/Y113D/N114Y/R122F/K154R/N159D/L175K (modifications made to SEQ ID No. 1) (Bacillus subtilis) (UniProt P18429)
[14] = biological target: Bacillus subtilis xylanase variant D11F/R122D/Q175E (modifications made to SEQ ID No. 1) (Bacillus subtilis) (UniProt P18429)
[15] = biological target: Bacillus subtilis xylanase variant G13Y/T110A/Y113D/R122D/K154R/N159D/Q175L (modifications made to SEQ ID No. 1) (Bacillus subtilis) (UniProt P18429)
[16] = biological target: Bacillus subtilis xylanase variant D11F/R122D/Y113A (modifications made to SEQ ID No. 1) (Bacillus subtilis) (UniProt P18429)
[17] = biological target: Bacillus subtilis xylanase variant G13Y/K99Y/T104W/T110A/Y113D/R122F/K154R/N159D/Q175L (modifications made to SEQ ID No. 1) (Bacillus subtilis) (UniProt P18429)
[18] = biological target: Bacillus subtilis xylanase variant G13Y/K99Y/T104W/T110A/Y113D/N114F/R122F/K154R/N159D/Q175L (modifications made to SEQ ID No. 1) (Bacillus subtilis) (UniProt P18429)
[19] = biological target: Bacillus subtilis xylanase variant G13Y/T110A/Y113D/R122D/Q175L (modifications made to SEQ ID No. 1) (Bacillus subtilis) (UniProt P18429)
[20] = biological target: Bacillus subtilis xylanase variant G13Y/Y113D/R122F/Q175L (modifications made to SEQ ID No. 1) (Bacillus subtilis) (UniProt P18429)
[21] = biological target: Bacillus subtilis xylanase variant G13Y/K99Y/T104W/T110A/Y113D/N114Y/R122F/K154R/N159D/Q175L (modifications made to SEQ ID No. 1) (Bacillus subtilis) (UniProt P18429)
[22] = biological target: Bacillus subtilis xylanase variant G13Y/V81I/K99Y/T104W/T110A/Y113D/R122F/K154R/N159D/Q175L (modifications made to SEQ ID No. 1) (Bacillus subtilis) (UniProt P18429)
[23] = biological target: Bacillus subtilis xylanase variant BS3 (wildtype with D11F/R122D mutations) (Bacillus subtilis) (UniProt P18429)
[24] = biological target: Bacillus subtilis xylanase variant G13Y/I77L/K99Y/T104W/T110A/Y113D/R122F/K154R/N159D/Q175L (modifications made to SEQ ID No. 1) (Bacillus subtilis) (UniProt P18429)
[25] = biological target: Bacillus subtilis xylanase variant G12F/Y113D/R122D/Q175L (modifications made to SEQ ID No. 1) (Bacillus subtilis) (UniProt P18429)
[26] = biological target: Bacillus subtilis xylanase variant G13Y/I77Y/K99Y/T104W/T110A/Y113D/R122F/K154R/N159D/Q175L (modifications made to SEQ ID No. 1) (Bacillus subtilis) (UniProt P18429)
[27] = biological target: Bacillus subtilis xylanase variant G13Y/K99Y/T104W/T110A/Y113D/N114D/R122F/K154R/N159D/L175K (modifications made to SEQ ID No. 1) (Bacillus subtilis) (UniProt P18429)
[28] = biological target: Bacillus subtilis xylanase variant G13Y/I77M/K99Y/T104W/T110A/Y113D/R122F/K154R/N159D/Q175L (modifications made to SEQ ID No. 1) (Bacillus subtilis) (UniProt P18429)
[29] = biological target: Bacillus subtilis xylanase variant G13Y/Y113D/R122D/Q175L (modifications made to SEQ ID No. 1) (Bacillus subtilis) (UniProt P18429)
[30] = biological target: Bacillus subtilis xylanase variant G13Y/K99Y/T104W/T110A/Y113D/I118V/R122F/K154R/N159D/Q175L (modifications made to SEQ ID No. 1) (Bacillus subtilis) (UniProt P18429)
[31] = biological target: Bacillus subtilis xylanase variant D11F/R122D/T110A (modifications made to SEQ ID No. 1) (Bacillus subtilis) (UniProt P18429)
[32] = biological target: Bacillus subtilis xylanase variant G13Y/T110A/Y113D/R122D/S162D/Q175L (modifications made to SEQ ID No. 1) (Bacillus subtilis) (UniProt P18429)
[33] = biological target: Bacillus subtilis xylanase variant G13Y/K99Y/T104W/T110A/Y113D/R122F/K154R/N159D/Y166F/Q175L (modifications made to SEQ ID No. 1) (Bacillus subtilis) (UniProt P18429)
[34] = biological target: Bacillus subtilis xylanase variant G13Y/K99Y/T104W/T110A/Y113D/R122F/K154R/N159D/Q175K (modifications made to SEQ ID No. 1) (Bacillus subtilis) (UniProt P18429)
[35] = biological target: Bacillus subtilis XynA wildtype xylanase (SEQ ID No. 1), no modifications (Bacillus subtilis) (UniProt P18429)

Sequence of crude xylanase inhibitor preparation from wheat (Triticum aestivum) flour, containing both TAXI and XIP (main, form in doubt): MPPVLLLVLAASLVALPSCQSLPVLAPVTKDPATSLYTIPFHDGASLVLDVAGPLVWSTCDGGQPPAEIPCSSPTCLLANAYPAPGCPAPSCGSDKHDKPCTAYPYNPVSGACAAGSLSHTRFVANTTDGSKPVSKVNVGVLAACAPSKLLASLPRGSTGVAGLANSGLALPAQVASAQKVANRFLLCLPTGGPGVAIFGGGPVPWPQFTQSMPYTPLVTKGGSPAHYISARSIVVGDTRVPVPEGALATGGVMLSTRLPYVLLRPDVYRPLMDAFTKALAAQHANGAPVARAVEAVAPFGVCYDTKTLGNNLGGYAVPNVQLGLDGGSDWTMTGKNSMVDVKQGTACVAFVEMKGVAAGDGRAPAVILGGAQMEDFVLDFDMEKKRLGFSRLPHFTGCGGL

% Activity @ 50 XIU/ml (residual xylanase activity) [1]: 44%
% Activity @ 50 XIU/ml (residual xylanase activity) [2]: 20%
% Activity @ 50 XIU/ml (residual xylanase activity) [3]: 45%
% Activity @ 33.5 XIU/ml (residual xylanase activity) [4]: 76%
% Activity @ 50 XIU/ml (residual xylanase activity) [5]: 79%
% Activity @ 50 XIU/ml (residual xylanase activity) [6]: 29%
% Activity @ 33.5 XIU/ml (residual xylanase activity) [7]: 80%
% Activity @ 50 XIU/ml (residual xylanase activity) [8]: 97%
% Activity @ 5.6 XIU/ml (residual xylanase activity) [9]: 100%
% Activity @ 33.5 XIU/ml (residual xylanase activity) [9]: 90%
% Activity @ 5.6 XIU/ml (residual xylanase activity) [10]: 99%
% Activity @ 5.6 XIU/ml (residual xylanase activity) [11]: 100%
% Activity @ 50 XIU/ml (residual xylanase activity) [12]: 65%
% Activity @ 50 XIU/ml (residual xylanase activity) [13]: 84%
% Activity @ 5.6 XIU/ml (residual xylanase activity) [14]: 100%
% Activity @ 50 XIU/ml (residual xylanase activity) [15]: 32%
% Activity @ 5.6 XIU/ml (residual xylanase activity) [16]: 100%
% Activity @ 50 XIU/ml (residual xylanase activity) [17]: 64%
% Activity @ 50 XIU/ml (residual xylanase activity) [18]: 79%
% Activity @ 33.5 XIU/ml (residual xylanase activity) [19]: 50%
% Activity @ 50 XIU/ml (residual xylanase activity) [20]: 90%
% Activity @ 50 XIU/ml (residual xylanase activity) [21]: 78%
% Activity @ 50 XIU/ml (residual xylanase activity) [22]: 46%
% Activity @ 5.6 XIU/ml (residual xylanase activity) [23]: 100%
% Activity @ 33.5 XIU/ml (residual xylanase activity) [23]: 100%
% Activity @ 50 XIU/ml (residual xylanase activity) [23]: 95%
% Activity @ 50 XIU/ml (residual xylanase activity) [24]: 75%
% Activity @ 5.6 XIU/ml (residual xylanase activity) [25]: 100%
% Activity @ 50 XIU/ml (residual xylanase activity) [26]: 37%
% Activity @ 50 XIU/ml (residual xylanase activity) [27]: 79%
% Activity @ 50 XIU/ml (residual xylanase activity) [28]: 46%
% Activity @ 33.5 XIU/ml (residual xylanase activity) [29]: 86%
% Activity @ 50 XIU/ml (residual xylanase activity) [30]: 79%
% Activity @ 5.6 XIU/ml (residual xylanase activity) [31]: 98%
% Activity @ 33.5 XIU/ml (residual xylanase activity) [31]: 100%
% Activity @ 50 XIU/ml (residual xylanase activity) [32]: 40%
% Activity @ 50 XIU/ml (residual xylanase activity) [33]: 68%
% Activity @ 50 XIU/ml (residual xylanase activity) [34]: 72%
% Activity @ 5.6 XIU/ml (residual xylanase activity) [35]: 29%
Substance: crude xylanase inhibitor preparation from wheat (Triticum aestivum) flour, containing both TAXI and XIP
